Assay results: article PMC11624264, “Phosphorylation of P-stalk proteins defines the ribosomal state for interaction with auxiliary protein factors” (EMBO Reports, 2024)
Several values for one entry are separate records, joined by “and”; a condition that tells them apart may be missing. Equal values may be shown once. Blank lines part the entries; values can stand above or below the molecule they belong to.

Assays:
[1] = biological target: P-stalk of 80S ribosomes from the SDPM yeast mutant strain (S to A mutations within all P-stalk proteins at the C-termini) (S. cerevisiae) (UniProt P05317)
[2] = biological target: native (phosphorylated) yeast pentameric P-stalk complex ΔuL10(199-312)-(P1A–P2B)-(P1B–P2A) (S. cerevisiae) (UniProt P05317)
[3] = biological target: T1, eIF5B (UniProt P39730 1-1002); test: MST; P-stalk complex labelled with RED-tris-NTA on its His tag, 5 nM, titrated with unlabelled eIF5B (dilution series from 1.48 μM); PBS with 0.05% Tween-20 and 1 mg/ml BSA; 25 °C; Monolith NT.115 Pico; conditions: both partners purified
T1 construct: translation initiation factor eIF5B; also called trGTPase eIF5B; source: purified as previously described (Blanchet and Ranjan, 2022)
T1 sequence (looked up): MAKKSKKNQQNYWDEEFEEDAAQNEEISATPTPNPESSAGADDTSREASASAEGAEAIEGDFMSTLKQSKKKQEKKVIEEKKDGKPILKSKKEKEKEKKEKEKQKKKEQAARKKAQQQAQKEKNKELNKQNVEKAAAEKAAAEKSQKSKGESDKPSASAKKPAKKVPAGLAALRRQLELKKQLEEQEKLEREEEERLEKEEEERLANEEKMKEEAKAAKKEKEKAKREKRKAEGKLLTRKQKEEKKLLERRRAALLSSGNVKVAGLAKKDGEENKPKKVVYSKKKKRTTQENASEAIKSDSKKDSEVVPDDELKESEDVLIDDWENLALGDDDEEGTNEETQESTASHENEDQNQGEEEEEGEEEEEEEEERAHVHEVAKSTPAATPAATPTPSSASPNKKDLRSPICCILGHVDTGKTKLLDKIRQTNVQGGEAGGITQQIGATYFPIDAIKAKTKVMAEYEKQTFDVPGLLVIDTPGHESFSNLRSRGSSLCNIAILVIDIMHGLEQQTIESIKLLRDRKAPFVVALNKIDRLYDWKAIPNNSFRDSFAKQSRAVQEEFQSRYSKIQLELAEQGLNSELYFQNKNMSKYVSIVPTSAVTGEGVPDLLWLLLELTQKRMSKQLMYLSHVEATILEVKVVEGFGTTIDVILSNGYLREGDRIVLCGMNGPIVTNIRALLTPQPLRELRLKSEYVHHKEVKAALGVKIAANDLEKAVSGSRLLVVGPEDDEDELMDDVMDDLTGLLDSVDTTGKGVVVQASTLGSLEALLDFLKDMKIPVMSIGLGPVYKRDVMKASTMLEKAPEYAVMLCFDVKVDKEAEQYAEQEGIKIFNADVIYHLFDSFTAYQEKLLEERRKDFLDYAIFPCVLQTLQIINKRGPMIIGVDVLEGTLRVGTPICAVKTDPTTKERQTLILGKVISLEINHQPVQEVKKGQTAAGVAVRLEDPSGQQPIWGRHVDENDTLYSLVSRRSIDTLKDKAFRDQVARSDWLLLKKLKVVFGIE

[4] = biological target: P-stalk of 80S ribosomes from the SDPM yeast mutant strain (S to A mutations within all P-stalk proteins at the C-termini) (S. cerevisiae), P05317
[5] = biological target: native (phosphorylated) yeast pentameric P-stalk complex ΔuL10(199-312)-(P1A–P2B)-(P1B–P2A) (S. cerevisiae), P05317; test: MST; P-stalk complex labelled with RED-tris-NTA on its His tag, 5 nM, titrated with unlabelled eIF5B (dilution series from 1.48 μM); PBS with 0.05% Tween-20 and 1 mg/ml BSA; 25 °C; Monolith NT.115 Pico

- GTPase activity of eEF1A (0.05 µM, 10 µM GTP) with 0.2 µM 80S ribosomes from the SDPM strain (S to A, dephospho-mimicking P-stalk on the ribosome): average GTPase rate [1]: 0.019 min⁻¹
- GTPase activity of eEF1A (0.05 µM, 10 µM GTP) with 0.2 µM 80S ribosomes from the WT strain (phosphorylated P-stalk on the ribosome): average GTPase rate [2]: 0.008 min⁻¹
Molecule: eEF1A (from UniProt P02994 1-458) (enzyme)

- GTPase activity of eEF2 (0.05 µM, 10 µM GTP) with 0.2 µM 80S ribosomes from the SDPM strain (S to A, dephospho-mimicking P-stalk on the ribosome): average GTPase rate [1]: 0.044 min⁻¹
- GTPase activity of eEF2 (0.05 µM, 10 µM GTP) with 0.2 µM 80S ribosomes from the WT strain (phosphorylated P-stalk on the ribosome): average GTPase rate [2]: 0.019 min⁻¹
Molecule: eEF2 (from UniProt P32324 1-842) (enzyme)

- Kd [3]: 4.6 µM and 4.5 µM
B1: AP-treated (dephosphorylated) yeast pentameric P-stalk complex ΔuL10(199-312)-(P1A–P2B)-(P1B–P2A) (complex, S. cerevisiae)
chain 1: SSILDITDEELVSHFVSAVSTIASISLAIGYPTLPSVGHTLINNYKDLLAVAIAASYHYPEIEDLVDRIENPEKYAAAAPAATSAASGDAAPAEEAAAEEEEESDDDMGFGLFD
chain 2: MSTESALSYAALILADSEIEISSEKLLTLTNAANVPVENIWADIFAKALDGQNLKDLLVNFSAGAAAPAGVAGGVAGGEAGEAEAEKEEEEAKEESDDDMGFGLFD
chain 3: MKYLAAYLLLVQGGNAAPSAADIKAVVESVGAEVDEARINELLSSLEGKGSLEEIIAEGQKKFATVPTGGASSAAAGAAGAAAGGDAAEEEKEEEAKEESDDDMGFGLFD
chain 4: MSDSIISFAAFILADAGLEITSDNLLTITKAAGANVDNVWADVYAKALEGKDLKEILSGFHNAGPVAGAGAASGAAAAGGDAAAEEEKEEEAAEESDDDMGFGLFD
chain 5: MKYLAAYLLLNAAGNTPDATKIKAILESVGIEIEDEKVSSVLSALEGKSVDELITEGNEKLAAVPAAGPASAGGAAAASGDAAAEEEKEEEAAEESDDDMGFGLFD
notes: ribosomal P-stalk protein P1A, S. cerevisiae; ribosomal P-stalk protein P2B, S. cerevisiae; ribosomal P-stalk protein P1B, S. cerevisiae; ribosomal P-stalk protein P2A, S. cerevisiae; For MST the complex was labelled with RED-tris-NTA on the His tag; also called dephospho P-stalk; dephospho-P-stalk complex; copies: + + + +

- GTPase activity of eIF5B (0.05 µM, 10 µM GTP) with 0.2 µM 80S ribosomes from the SDPM strain (S to A, dephospho-mimicking P-stalk on the ribosome): average GTPase rate [4]: 0.02 min⁻¹
- Kd [5]: 11.2 µM
B2: eIF5B, P39730 1-1002 (enzyme)
chain: MAKKSKKNQQNYWDEEFEEDAAQNEEISATPTPNPESSAGADDTSREASASAEGAEAIEGDFMSTLKQSKKKQEKKVIEEKKDGKPILKSKKEKEKEKKEKEKQKKKEQAARKKAQQQAQKEKNKELNKQNVEKAAAEKAAAEKSQKSKGESDKPSASAKKPAKKVPAGLAALRRQLELKKQLEEQEKLEREEEERLEKEEEERLANEEKMKEEAKAAKKEKEKAKREKRKAEGKLLTRKQKEEKKLLERRRAALLSSGNVKVAGLAKKDGEENKPKKVVYSKKKKRTTQENASEAIKSDSKKDSEVVPDDELKESEDVLIDDWENLALGDDDEEGTNEETQESTASHENEDQNQGEEEEEGEEEEEEEEERAHVHEVAKSTPAATPAATPTPSSASPNKKDLRSPICCILGHVDTGKTKLLDKIRQTNVQGGEAGGITQQIGATYFPIDAIKAKTKVMAEYEKQTFDVPGLLVIDTPGHESFSNLRSRGSSLCNIAILVIDIMHGLEQQTIESIKLLRDRKAPFVVALNKIDRLYDWKAIPNNSFRDSFAKQSRAVQEEFQSRYSKIQLELAEQGLNSELYFQNKNMSKYVSIVPTSAVTGEGVPDLLWLLLELTQKRMSKQLMYLSHVEATILEVKVVEGFGTTIDVILSNGYLREGDRIVLCGMNGPIVTNIRALLTPQPLRELRLKSEYVHHKEVKAALGVKIAANDLEKAVSGSRLLVVGPEDDEDELMDDVMDDLTGLLDSVDTTGKGVVVQASTLGSLEALLDFLKDMKIPVMSIGLGPVYKRDVMKASTMLEKAPEYAVMLCFDVKVDKEAEQYAEQEGIKIFNADVIYHLFDSFTAYQEKLLEERRKDFLDYAIFPCVLQTLQIINKRGPMIIGVDVLEGTLRVGTPICAVKTDPTTKERQTLILGKVISLEINHQPVQEVKKGQTAAGVAVRLEDPSGQQPIWGRHVDENDTLYSLVSRRSIDTLKDKAFRDQVARSDWLLLKKLKVVFGIE
